Substitutions are numbered along the chain they refer to. Names may count otherwise. “And” between values parts separate entries of the source, which are not always exact repeats. Identical values can stand only once.
How the values were obtained:
[1] = target: T1, human TNFR2 (human, UniProt P20333 23-461); assay: cell-based or functional assay
T1 sequence: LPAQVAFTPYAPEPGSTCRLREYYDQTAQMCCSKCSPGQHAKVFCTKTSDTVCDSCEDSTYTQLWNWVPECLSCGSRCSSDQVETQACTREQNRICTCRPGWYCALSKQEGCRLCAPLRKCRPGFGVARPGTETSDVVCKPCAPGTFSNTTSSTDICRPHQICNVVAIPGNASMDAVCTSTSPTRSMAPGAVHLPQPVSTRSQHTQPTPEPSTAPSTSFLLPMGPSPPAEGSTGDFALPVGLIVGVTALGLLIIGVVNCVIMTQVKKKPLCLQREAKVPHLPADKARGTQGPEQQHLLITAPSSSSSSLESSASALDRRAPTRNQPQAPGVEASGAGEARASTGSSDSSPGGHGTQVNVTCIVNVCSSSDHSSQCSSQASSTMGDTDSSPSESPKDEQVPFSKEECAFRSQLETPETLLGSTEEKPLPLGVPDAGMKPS

[2] = target: T2, biotinylated human TNFR2 (human, UniProt P20333 23-257, biotinylated); assay: SPR (BIAcore), biotinylated TNFR2 captured on streptavidin chip, antibody as analyte (apparent affinity)
T2 construct: Soluble biotinylated protein captured on a streptavidin chip for SPR; also called HuTNFR2
T2 sequence: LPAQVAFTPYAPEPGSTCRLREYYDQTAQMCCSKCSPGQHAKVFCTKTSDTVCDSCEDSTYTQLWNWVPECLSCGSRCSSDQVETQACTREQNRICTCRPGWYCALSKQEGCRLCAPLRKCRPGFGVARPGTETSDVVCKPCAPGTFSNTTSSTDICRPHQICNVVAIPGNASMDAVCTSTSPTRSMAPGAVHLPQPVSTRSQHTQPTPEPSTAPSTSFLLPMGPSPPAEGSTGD
Procedure: (§1) Increased avidity was confirmed by Surface Plasmon Resonance (SPR) using a BIAcore. Briefly, biotinylated human- or cyno-TNFR2 was captured on the surface of a streptavidin chip for 60 seconds at a flow rate of […]. […] The dissociation phase was then initiated with running buffer (HBS-EP+) injected for 600 seconds at […]. Data were analyzed using the Biacore Evaluation Software.

[3] = target: T3, biotinylated cyno TNFR2 (cynomolgus monkey, UniProt P20333 23-257 (human entry), limits assumed, biotinylated); assay: as above
T3 construct: Soluble biotinylated protein captured on a streptavidin chip for SPR; also called CyTNFR2
T3 chain: T2 sequence with S16G, S36P, P117Q, N164H, E210A, S216G, M223V
Procedure: as §1

[4] = target: T1, human TNFR2; assay: binding to human TNFR2 CHO cells
[5] = target: T1, human TNFR2; assay: cell-based or functional assay; remark: listed apart in the source
[6] = target: T4, cynomolgus monkey TNFR2 (cynomolgus monkey, UniProt P20333 23-461 (human entry)); assay: cell-based or functional assay
T4 chain: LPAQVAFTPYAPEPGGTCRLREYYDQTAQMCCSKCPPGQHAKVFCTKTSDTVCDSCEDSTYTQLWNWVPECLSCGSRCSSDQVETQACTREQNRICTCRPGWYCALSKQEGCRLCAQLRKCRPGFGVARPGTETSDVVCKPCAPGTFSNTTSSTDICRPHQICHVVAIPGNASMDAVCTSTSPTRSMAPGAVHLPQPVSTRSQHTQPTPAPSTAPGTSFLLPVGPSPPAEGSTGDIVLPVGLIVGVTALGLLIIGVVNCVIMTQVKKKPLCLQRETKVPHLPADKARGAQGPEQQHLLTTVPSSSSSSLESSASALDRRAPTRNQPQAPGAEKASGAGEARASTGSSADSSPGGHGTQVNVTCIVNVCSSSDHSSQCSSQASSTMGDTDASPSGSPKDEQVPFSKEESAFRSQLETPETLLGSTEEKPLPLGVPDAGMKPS

[7] = target: T1, human TNFR2; assay: cell-based or functional assay; remark: listed apart in the source
[8] = target: T4, cynomolgus monkey TNFR2; assay: cell-based or functional assay
[9] = target: T5, human TNFR2 (human, UniProt P20333 23-461); assay: binding to human TNFR2 CHO cells, IgG format; IgG format, light chain Q89L
T5 construct: expressed on the surface of CHO cells; also called HuTNFR2; TNFRSF1B
T5 sequence: T1 sequence

[10] = target: T5, human TNFR2; assay: binding to human TNFR2 CHO cells, IgG format
[11] = target: T5, human TNFR2; assay: binding to human TNFR2 CHO cells, IgG format; IgG format, light chain Q89L, Y91K
[12] = target: T1, human TNFR2; assay: binding to CHO cells over-expressing human TNFR2
[13] = target: T2, biotinylated human TNFR2; assay: SPR (BIAcore), apparent affinity
Procedure: as §1

[14] = target: T1, human TNFR2; assay: cell-based or functional assay; remark: listed apart in the source
[15] = target: T4, cynomolgus monkey TNFR2; assay: cell-based or functional assay
[16] = target: T1, human TNFR2; assay: cell-based or functional assay; remark: listed apart in the source
[17] = target: T4, cynomolgus monkey TNFR2; assay: cell-based or functional assay
[18] = target: T2, biotinylated human TNFR2; assay: SPR (BIAcore), biotinylated TNFR2 captured on streptavidin chip, TetraFab as analyte (apparent affinity)
Procedure: as §1

[19] = target: T3, biotinylated cyno TNFR2; assay: as above
Procedure: as §1

[20] = target: T1, human TNFR2; assay: cell-based or functional assay; remark: listed apart in the source
[21] = target: T4, cynomolgus monkey TNFR2; assay: cell-based or functional assay

B1: GBT-TNFR2-1765 (antibody, human IgG2, kappa, V domains shown)
VH: QVQLVQSGAEVKKPGASVKVSCKVSGFSFPSSGVDWVRQAPGQGLEWLGVTWGVGSTHYNQKFQGRVTITKDTSKSTVYMELSSLRSEDTAVYYCASGEWDEGFVYWGQGTLVTVSS
VL: DIQLTQSPSFLSASVGDRVTITCKASQNVGTAVAWYQQKPGKAPKLLIYAASTLQSGVPSRFSGSGSGTEFTLTISSLQPEDFATYYCQQYSSYPLTFGGGTKVEIKR
- EC50 Jurkat [1]: 1.01 µg/mL
- Kd [2]: 0.32 nM
- koff [2]: 0.00136 s⁻¹
- kon [2]: 4.2e+06 M⁻¹ s⁻¹
- Kd [3]: 2.39 nM
- koff [3]: 0.00977 s⁻¹
- kon [3]: 4.09e+06 M⁻¹ s⁻¹
- EC50 [4]: 1.21 nM
- EC50 HuPBMC (ICAM-1 up-regulation) [5]: 1.31 µg/mL
- EC50 CyPBMC (CD25+/Ki67+ of CD4+ cells) [6]: 13.6 µg/mL
- EC50 (HuPBMC) [7]: 1.31 nM
- Jurkat EC50 [7]: 1.01 µg/mL
- EC50 (CyPBMC) [8]: 13.6 nM

B2: IgG2205 (antibody, V domains shown)
VH: B1 VH
VL: B1 VL with Q89L
notes: IgG
- EC50 [9]: 0.43 nM

B3: GBT-TNFR2-1765 (antibody, human IgG2, kappa, V domains shown)
VH: B1 VH
VL: B1 VL
- EC50 [10]: 0.67 nM

B4: IgG 2204 (antibody, V domains shown)
VH: B1 VH
VL: B1 VL with Q89L, Y91K
notes: IgG
- EC50 [11]: 1.63 nM

B5: clone 825 (antibody, V domains shown)
VH: QVQLKESGPGLVAPSQSLSITCTVSGFSFPSSGVDWVRQSPGKGLEWLGVTWGVGSTHYNSALKSRLSISKDNSKSQVFLKMNSLQTEDTAIYYCASGEWDEGFVYWGQGTLVTVSA
VL: DIVMTQSQKFMSTTVGDRVSITCKASQNVGTAVAWYQQKPGQSPKLLIYSASNRYTGVPDRFTGSGSGTDFTLTISNMQSEDLADYFCQQYSSYPLTFGGGTKLEIK
notes: human IgG1 (L234A, L235A, G237A, EU), kappa
- EC50 [12]: 0.0698 µg/mL

B6: TetraFab 2053 (antibody, human IgG1, kappa)
heavy: QVQLVQSGAEVKKPGASVKVSCKVSGFSFPSSGVDWVRQAPGQGLEWLGVTWGVGSTHYNQKFQGRVTITKDTSKSTVYMELSSLRSEDTAVYYCASGEWDEGFVYWGQGTLVTVSSASTKGPSVFPLAPSSKSTSGGTAALGCLVKDYFPEPVTVSWNSGALTSGVHTFPAVLQSSGLYSLSSVVTVPSSSLGTQTYICNVNHKPSNTKVDKKVEPKSCGGGGSQVQLVQSGAEVKKPGASVKVSCKVSGFSFPSSGVDWVRQAPGQGLEWLGVTWGVGSTHYNQKFQGRVTITKDTSKSTVYMELSSLRSEDTAVYYCASGEWDEGFVYWGQGTLVTVSSASTKGPSVFPLAPSSKSTSGGTAALGCLVKDYFPEPVTVSWNSGALTSGVHTFPAVLQSSGLYSLSSVVTVPSSSLGTQTYICNVNHKPSNTKVDKKVEPKSCDKTHTCPPCPAPEAAGAPSVFLFPPKPKDTLMISRTPEVTCVVVDVSHEDPEVKFNWYVDGVEVHNAKTKPREEQYNSTYRVVSVLTVLHQDWLNGKEYKCKVSNKALPAPIEKTISKAKGQPREPQVYTLPPSREEMTKNQVSLTCLVKGFYPSDIAVEWESNGQPENNYKTTPPVLDSDGSFFLYSKLTVDKSRWQQGNVFSCSVMHEALHNHYTQKSLSLSPGK
light: DIQLTQSPSFLSASVGDRVTITCKASQNVGTAVAWYQQKPGKAPKLLIYAASTLQSGVPSRFSGSGSGTEFTLTISSLQPEDFATYYCQQYSSYPLTFGGGTKVEIKRTVAAPSVFIFPPSDEQLKSGVTASVVCLLNNFYPREAKVQWKVDNALQSGNSQESVTEQDSKDSTYSLSSTLTLSKADYEKHKVYACEVTHQGLSSPVTKSFNRGEC
notes: also called TF2053
- fold improvement of KD compared to its IgG counterparts 854 or 1765 [13]: 5 fold
- fold improvement of EC50 for up-regulation of ICAM-1 against 854 and 1765 [14]: 10 fold
- fold improvement of Jurkat EC50 compared to both 854 and 1765 [14]: > 10 fold
- mean EC50 for IKBa in human expanded Tregs [14]: 0.026 nM
- mean EC50 for OX-40 upregulation on human splenic Treg [14]: 0.033 nM
- loss of potency in cyno versus human, IKBa degradation [15]: > 5 fold
- mean EC50 for IKBa in cyno expanded Tregs [15]: 0.145 nM
- mean EC50 for upregulation of OX-40 in cyno splenic Treg [15]: 0.958 nM
- EC50 Jurkat [1]: 0.037 µg/mL
- Human EC50, IKBa degradation in expanded Tregs, donor Human D23 [16]: 0.0478 nM
- Human EC50, IKBa degradation in expanded Tregs, donor Human D24 [16]: 0.00575 nM
- Human EC50, IKBa degradation in expanded Tregs, donor Human D28 [16]: 0.02 nM and 0.0179 nM
- Human EC50, IKBa degradation in expanded Tregs, donor Human D32 [16]: 0.0373 nM
- Cyno EC50, IKBa degradation in expanded Tregs, donor Cyno3 [17]: 2.25 nM
- Cyno EC50, IKBa degradation in expanded Tregs, donor Cyno 16-477 [17]: 0.118 nM
- Cyno EC50, IKBa degradation in expanded Tregs, donor Cyno 16-873 [17]: 0.0538 nM
- Cyno EC50, IKBa degradation in expanded Tregs, donor Cyno 18-7469 [17]: 0.4 nM
- Cyno EC50, IKBa degradation in expanded Tregs, donor Cyno 18-7473 [17]: 0.155 nM
- Kd [18]: 0.06 nM
- koff [18]: 0.000473 s⁻¹
- kon [18]: 8.1e+06 M⁻¹ s⁻¹
- Kd [19]: 0.61 nM
- koff [19]: 0.00706 s⁻¹
- kon [19]: 1.15e+07 M⁻¹ s⁻¹
- EC50 HuPBMC (ICAM-1 up-regulation) [5]: 0.116 µg/mL
- EC50 CyPBMC (CD25+/Ki67+ of CD4+ cells) [6]: 5.95 µg/mL
- Human EC50, OX-40 up-regulation on splenic Treg, donor BioIVT #BRH1515663 [20]: 0.018 nM
- Human EC50, OX-40 up-regulation on splenic Treg, donor ZenBio #072518 [20]: 0.047 nM
- Cyno EC50, OX-40 up-regulation on splenic Treg, donor 17-5215 [21]: 1.75 nM
- Cyno EC50, OX-40 up-regulation on splenic Treg, donor #31 [21]: 0.799 nM
- Cyno EC50, OX-40 up-regulation on splenic Treg, donor #34 [21]: 0.905 nM
- Cyno EC50, OX-40 up-regulation on splenic Treg, donor TA1 [21]: 0.642 nM
- Cyno EC50, OX-40 up-regulation on splenic Treg, donor TA2 [21]: 0.692 nM

From patent US20230406951A1 (Pfizer, published 2023)
